The record followed here is the supplement of paper PMC9112550, “Optimization of the antimicrobial peptide Bac7 by deep mutational scanning” (BMC Biology, 2022).
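Also: peptides expressed intracellularly from a pBAD plasmid library in pooled LB shake-flask culture, induced with 0.3% L-arabinose, DNA abundance read by NGS, three biological replicates, DESeq2 with apeglm shrinkage.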

The data set has as its system Escherichia coli TOP10. In words: shrunken log2 fold change of peptide-encoding DNA abundance (4.5 h post-induction vs induction); higher = less antimicrobial activity (less host growth inhibition). To be noted: time post-induction: 4.5 h; library: site-saturation at positions 5, 18, 19, 20.
Regarding RRIRKRPPRLPRPRPRPCAWPRP, the “shrunken log2 fold change” value was found to be 0.953.

With RRIRMRPPRLPRPRPRPPYGPRP, the “shrunken log2 fold change” value was determined as 0.294. Next, RRIRHRPPRLPRPRPRPCVRPRP: -0.504; RRIRSRPPRLPRPRPRPLQWPRP: -0.0911; RRIRDRPPRLPRPRPRPYHCPRP: -0.00783. The value for RRIRMRPPRLPRPRPRPNLGPRP was -0.0136. The value for RRIRFRPPRLPRPRPRPSPLPRP was -0.0981; that for RRIRYRPPRLPRPRPRPHDYPRP was -0.119. Turning to RRIRNRPPRLPRPRPRPGPGPRP, the “shrunken log2 fold change” value stood at 0.274. Next, RRIRARPPRLPRPRPRPMMGPRP: 0.082. Take RRIRQRPPRLPRPRPRPQVYPRP: the “shrunken log2 fold change” value is -0.0731. The value for RRIRRRPPRLPRPRPRPVSIPRP was -0.0599; that for RRIRWRPPRLPRPRPRPVENPRP was -0.101. Take RRIRLRPPRLPRPRPRPMPMPRP: the “shrunken log2 fold change” value was 0.0663.

Turning to RRIRPRPPRLPRPRPRPWREPRP, the “shrunken log2 fold change” value is -0.00316. Next, RRIRRRPPRLPRPRPRPYLIPRP: -0.082; RRIRRRPPRLPRPRPRPHLCPRP: 0.189; RRIRNRPPRLPRPRPRPPDFPRP: 0.272. The value for RRIRLRPPRLPRPRPRPTYTPRP was -0.317; that for RRIRERPPRLPRPRPRPGDEPRP was 0.115; that for RRIRARPPRLPRPRPRPTRSPRP was 0.258. The value for RRIRDRPPRLPRPRPRPIVNPRP was -0.0751; that for RRIRNRPPRLPRPRPRPHDEPRP was -0.103. On to RRIRNRPPRLPRPRPRPPHCPRP, for which the “shrunken log2 fold change” value came out at 0.0234.

Take RRIRARPPRLPRPRPRPFIQPRP: the “shrunken log2 fold change” value stood at 0.0556. Next, RRIRDRPPRLPRPRPRPGEIPRP: 0.501. The value for RRIRCRPPRLPRPRPRPQWLPRP was -0.133; that for RRIRTRPPRLPRPRPRPRKLPRP was -0.073.

Regarding RRIRMRPPRLPRPRPRPSHVPRP, the “shrunken log2 fold change” value was -0.0609.

With RRIRKRPPRLPRPRPRPETSPRP, the “shrunken log2 fold change” value was determined as 1.02. Next, RRIRARPPRLPRPRPRPYAEPRP: -0.104; RRIRDRPPRLPRPRPRPCMTPRP: 0.33. The value for RRIRDRPPRLPRPRPRPSALPRP was 0.162. The value for RRIRQRPPRLPRPRPRPDCAPRP was 0.0476. Turning to RRIRDRPPRLPRPRPRPFQEPRP, the “shrunken log2 fold change” value was -0.137. Turning to RRIRARPPRLPRPRPRPPFHPRP, the “shrunken log2 fold change” value is 0.386. The value for RRIRLRPPRLPRPRPRPTVNPRP was -0.119; that for RRIRMRPPRLPRPRPRPAYIPRP was 0.768.

In the case of RRIRERPPRLPRPRPRPGIAPRP, the “shrunken log2 fold change” value was -0.183. Next, RRIRQRPPRLPRPRPRPRNNPRP: -0.173; RRIRNRPPRLPRPRPRPPCIPRP: -0.662. For RRIRCRPPRLPRPRPRPHAAPRP, the “shrunken log2 fold change” value came out at 0.31.

RRIRKRPPRLPRPRPRPDKQPRP: the “shrunken log2 fold change” value was 0.0638. Next, RRIRRRPPRLPRPRPRPRIPPRP: 0.209; RRIRIRPPRLPRPRPRPNYWPRP: -0.728; RRIRWRPPRLPRPRPRPIITPRP: -0.827. Next, RRIRVRPPRLPRPRPRPNIAPRP: 0.249. Next, RRIRQRPPRLPRPRPRPWTMPRP: 0.0143; RRIRWRPPRLPRPRPRPVQAPRP: 0.36. Regarding RRIRMRPPRLPRPRPRPRETPRP, the “shrunken log2 fold change” value was 1.49. Next, RRIRPRPPRLPRPRPRPGHDPRP: 0.235; RRIRCRPPRLPRPRPRPGPQPRP: 0.117; RRIRLRPPRLPRPRPRPMTVPRP: -0.108. The value for RRIRTRPPRLPRPRPRPIQEPRP was 0.0124; that for RRIRNRPPRLPRPRPRPRNDPRP was -0.304; that for RRIRTRPPRLPRPRPRPPEMPRP was 0.237. Next, RRIRMRPPRLPRPRPRPPYMPRP: -0.135; RRIRLRPPRLPRPRPRPWARPRP: 0.482; RRIRDRPPRLPRPRPRPSSLPRP: 0.15. Consider RRIRARPPRLPRPRPRPYFHPRP, for which the “shrunken log2 fold change” value is -0.444. The value for RRIRTRPPRLPRPRPRPANSPRP was -0.119; that for RRIRSRPPRLPRPRPRPQRGPRP was 0.274. The value for RRIRHRPPRLPRPRPRPGFLPRP was -0.0294; that for RRIRFRPPRLPRPRPRPTDNPRP was -0.205.

With RRIRDRPPRLPRPRPRPDRNPRP, the “shrunken log2 fold change” value is -0.0216. Next, RRIRMRPPRLPRPRPRPCFIPRP: -0.496. For the sequence RRIRGRPPRLPRPRPRPSLFPRP, the “shrunken log2 fold change” value stood at 0.442. Next, RRIRARPPRLPRPRPRPYIHPRP: -0.681; RRIRHRPPRLPRPRPRPNGLPRP: -0.57. As to RRIRYRPPRLPRPRPRPYLAPRP, the “shrunken log2 fold change” value was -0.682. Next, RRIRPRPPRLPRPRPRPMHWPRP: 0.335; RRIRRRPPRLPRPRPRPCYIPRP: -0.205.

Take RRIRARPPRLPRPRPRPSHLPRP: the “shrunken log2 fold change” value is -0.41. The value for RRIRSRPPRLPRPRPRPMCNPRP was -0.287; that for RRIRERPPRLPRPRPRPTDKPRP was -0.234; that for RRIRRRPPRLPRPRPRPKNQPRP was 0.173.

In the case of RRIRGRPPRLPRPRPRPWTIPRP, the “shrunken log2 fold change” value amounted to 0.00608. The value for RRIRDRPPRLPRPRPRPAKMPRP was -0.156; that for RRIRCRPPRLPRPRPRPCKWPRP was -0.208.

Regarding RRIRQRPPRLPRPRPRPCLNPRP, the “shrunken log2 fold change” value is -0.632. Next, RRIRVRPPRLPRPRPRPMLYPRP: -0.375; RRIRVRPPRLPRPRPRPERCPRP: 0.187; RRIRNRPPRLPRPRPRPGAMPRP: 0.101.

For the sequence RRIRGRPPRLPRPRPRPDAQPRP, the “shrunken log2 fold change” value was 2.38.

For the sequence RRIRQRPPRLPRPRPRPCIWPRP, the “shrunken log2 fold change” value is -0.018.

For the sequence RRIRDRPPRLPRPRPRPHHCPRP, the “shrunken log2 fold change” value is -0.126. RRIRRRPPRLPRPRPRPPDVPRP: the “shrunken log2 fold change” value is 0.474. The value for RRIRPRPPRLPRPRPRPCIGPRP was 0.00708. Regarding RRIRNRPPRLPRPRPRPREIPRP, the “shrunken log2 fold change” value stood at 0.0831. Regarding RRIRDRPPRLPRPRPRPTATPRP, the “shrunken log2 fold change” value was found to be 2.57.

With RRIRWRPPRLPRPRPRPAWLPRP, the “shrunken log2 fold change” value is 0.61.
